Broadly, the Kd is the concentration at which binding is half-saturated.

Like-named read-outs stand apart in the source and are kept apart here. Starred links: 1 amine or outer side, 2 acyl side, 3 side chain; linkers in the order of their positions; H or OH if unused. Positions of bridges follow the written chain, without caps; N, C: chain ends. Non-standard residues stand in square brackets, D forms with d. Groups on a side chain read outwards from the residue. *: point of attachment. Trp(1-Me) = Cn1cc(C[C@H](N)C(=O)O)c2ccccc21; C16 diacid = O=C(O)CCCCCCCCCCCCCCC(=O)*; γGlu = O=C(O)[C@H](CCC(=O)[*:2])N[*:1]; AEEA = NCCOCCOCC(=O)O; Sar = CNCC(=O)O

The target in assay [1] is T1, Human C3 (human, UniProt P01024 23-1663).
T1 construct: In SPR the bought human C3 was immobilised on CM5 chips by amine coupling; In the haemolysis assay the C3 is that of diluted human serum; also called complement C3
The experiment in a line: SPR, C3 immobilised. How it is done:
Surface plasmon resonance (SPR) was used to characterize peptides with respect to their binding affinity (Kd) for C3. Human C3 (Complement tech cat #A1 13c) was immobilised on individual flow cells of CM5 sensor chips (GE Healthcare) using standard amine coupling to a density of approximately 3000 resonance units (RU) in a buffer consisting of 10 mM phosphate pH 7.4, 150 mM NaCl, 0.05% Tween20.
For interaction experiments a multi-cycle experiment approach was used and performed using either a Biacore™ T200 or Biacore™ X100 instrument (GE Healthcare) at 25° C. Peptides were injected in increasing concentration series (5-8 different concentrations) for 60-120 s at a flow rate of 30 μL/min in a buffer consisting of 10 mM Tris buffer at pH 7.4, with 150 mM NaCl and 0.05% Tween20. This was followed by a dissociation period for up to 10 min. The C3 surface was regenerated between runs by a 45 s injection of 3 M MgCl₂.
Sensorgrams were double-referenced (reference surface, blanks) prior to analysis of the kinetic profiles by globally fitting data to a 1:1 Langmuir binding model to obtain association and dissociation rates for calculation of the equilibrium dissociation constant Kd. Each peptide was tested at in at least 2 independent experiments.

For assay [2], the target named is T1, Human C3. The assay is described as follows: cell-based or functional assay.
Assay [3] has as its target T1, Human C3. The assay is described as follows: cell-based or functional assay. This is another data set of the same source.

T1 sequence (P01024 23-1663 limits assumed): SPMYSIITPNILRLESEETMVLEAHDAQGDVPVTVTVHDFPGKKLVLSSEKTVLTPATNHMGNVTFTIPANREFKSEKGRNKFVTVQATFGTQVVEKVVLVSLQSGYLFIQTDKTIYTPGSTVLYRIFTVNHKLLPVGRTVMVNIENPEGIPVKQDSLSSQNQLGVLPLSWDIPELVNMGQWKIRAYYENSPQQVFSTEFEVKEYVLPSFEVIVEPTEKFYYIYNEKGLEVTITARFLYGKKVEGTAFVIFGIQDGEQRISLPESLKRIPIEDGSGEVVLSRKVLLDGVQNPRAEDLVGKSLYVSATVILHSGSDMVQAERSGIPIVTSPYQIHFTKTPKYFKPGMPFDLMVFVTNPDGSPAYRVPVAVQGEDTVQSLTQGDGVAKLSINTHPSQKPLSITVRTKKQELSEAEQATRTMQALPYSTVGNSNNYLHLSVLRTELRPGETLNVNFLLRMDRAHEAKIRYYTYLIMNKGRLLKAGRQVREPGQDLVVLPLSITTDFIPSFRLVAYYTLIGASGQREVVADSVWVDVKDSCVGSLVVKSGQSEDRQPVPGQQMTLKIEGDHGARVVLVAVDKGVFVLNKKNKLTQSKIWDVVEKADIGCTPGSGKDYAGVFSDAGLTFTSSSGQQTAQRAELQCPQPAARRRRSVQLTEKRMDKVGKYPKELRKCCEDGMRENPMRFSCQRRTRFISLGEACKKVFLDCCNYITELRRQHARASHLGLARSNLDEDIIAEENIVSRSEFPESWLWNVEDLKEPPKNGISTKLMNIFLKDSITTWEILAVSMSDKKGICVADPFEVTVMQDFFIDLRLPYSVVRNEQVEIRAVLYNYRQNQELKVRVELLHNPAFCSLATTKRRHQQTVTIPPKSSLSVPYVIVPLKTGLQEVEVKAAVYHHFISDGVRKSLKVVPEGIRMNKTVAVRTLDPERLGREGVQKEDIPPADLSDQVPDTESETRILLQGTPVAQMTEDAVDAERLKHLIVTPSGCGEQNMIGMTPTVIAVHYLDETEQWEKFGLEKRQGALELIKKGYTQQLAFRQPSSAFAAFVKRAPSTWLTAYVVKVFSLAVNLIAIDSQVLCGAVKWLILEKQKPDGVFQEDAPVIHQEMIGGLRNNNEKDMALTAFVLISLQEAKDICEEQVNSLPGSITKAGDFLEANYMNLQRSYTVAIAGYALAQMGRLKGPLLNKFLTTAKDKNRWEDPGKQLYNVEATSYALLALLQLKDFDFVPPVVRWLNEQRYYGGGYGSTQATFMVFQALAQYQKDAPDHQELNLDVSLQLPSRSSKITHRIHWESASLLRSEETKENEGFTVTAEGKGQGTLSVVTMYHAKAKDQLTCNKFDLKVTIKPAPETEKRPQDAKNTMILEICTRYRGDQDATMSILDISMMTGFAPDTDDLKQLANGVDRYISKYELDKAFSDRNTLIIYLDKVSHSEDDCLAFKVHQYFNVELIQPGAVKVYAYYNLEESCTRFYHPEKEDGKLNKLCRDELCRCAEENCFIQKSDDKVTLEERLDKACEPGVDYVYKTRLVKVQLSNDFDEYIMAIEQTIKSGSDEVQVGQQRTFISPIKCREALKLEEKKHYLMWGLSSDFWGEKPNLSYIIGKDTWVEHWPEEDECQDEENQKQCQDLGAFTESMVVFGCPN

B1: Compound 102 (peptide)
peptide: Ac-FCI[Trp(1-Me)]QDWGEHRCTGAESK([AEEA-AEEA-γGlu-C16 diacid])-NH2
modifications: disulfide 2-12
SMILES: CC[C@H](C)[C@@H]1NC(=O)[C@@H](NC(=O)[C@H](Cc2ccccc2)NC(C)=O)CSSC[C@@H](C(=O)N[C@H](C(=O)NCC(=O)N[C@@H](C)C(=O)N[C@@H](CCC(=O)O)C(=O)N[C@@H](CO)C(=O)N[C@@H](CCCCNC(=O)COCCOCCNC(=O)COCCOCCNC(=O)CC[C@H](NC(=O)CCCCCCCCCCCCCCC(=O)O)C(=O)O)C(N)=O)[C@@H](C)O)NC(=O)[C@H](CCCNC(=N)N)NC(=O)[C@H](Cc2c[nH]cn2)NC(=O)[C@H](CCC(=O)O)NC(=O)CNC(=O)[C@H](Cc2c[nH]c3ccccc23)NC(=O)[C@H](CC(=O)O)NC(=O)[C@H](CCC(N)=O)NC(=O)[C@H](Cc2cn(C)c3ccccc23)NC1=O
With B1, the affinity in assay [1], expressed as Kd, was 1.7 nM. In addition, the “IC50[nM], inhibition of hemolysis” value in assay [2] was less than 100 nM.

B2: Compound 87 (peptide)
peptide: Ac-GEFCI[Trp(1-Me)]QDWGEHRC[Sar]EA-NH2
modifications: disulfide 4-14
SMILES: CC[C@H](C)[C@@H]1NC(=O)[C@@H](NC(=O)[C@H](Cc2ccccc2)NC(=O)[C@H](CCC(=O)O)NC(=O)CNC(C)=O)CSSC[C@@H](C(=O)N(C)CC(=O)N[C@@H](CCC(=O)O)C(=O)N[C@@H](C)C(N)=O)NC(=O)[C@H](CCCNC(=N)N)NC(=O)[C@H](Cc2c[nH]cn2)NC(=O)[C@H](CCC(=O)O)NC(=O)CNC(=O)[C@H](Cc2c[nH]c3ccccc23)NC(=O)[C@H](CC(=O)O)NC(=O)[C@H](CCC(N)=O)NC(=O)[C@H](Cc2cn(C)c3ccccc23)NC1=O
B2 had an IC50[nM], inhibition of hemolysis in assay [3] of less than 100 nM.

B3: Compound 76 (peptide)
peptide: Ac-SEFCI[Trp(1-Me)]QDW[Sar]EHRC[Sar]EA-NH2
modifications: disulfide 4-14
SMILES: CC[C@H](C)[C@@H]1NC(=O)[C@@H](NC(=O)[C@H](Cc2ccccc2)NC(=O)[C@H](CCC(=O)O)NC(=O)[C@H](CO)NC(C)=O)CSSC[C@@H](C(=O)N(C)CC(=O)N[C@@H](CCC(=O)O)C(=O)N[C@@H](C)C(N)=O)NC(=O)[C@H](CCCNC(=N)N)NC(=O)[C@H](Cc2c[nH]cn2)NC(=O)[C@H](CCC(=O)O)NC(=O)CN(C)C(=O)[C@H](Cc2c[nH]c3ccccc23)NC(=O)[C@H](CC(=O)O)NC(=O)[C@H](CCC(N)=O)NC(=O)[C@H](Cc2cn(C)c3ccccc23)NC1=O
B3 displayed an IC50[nM], inhibition of hemolysis in assay [3] of less than 100 nM.

B4: Compound 79 (peptide)
peptide: Ac-SEFCI[Trp(1-Me)]QDW[Sar]EHRC[Sar]E-NH2
modifications: disulfide 4-14
SMILES: CC[C@H](C)[C@@H]1NC(=O)[C@@H](NC(=O)[C@H](Cc2ccccc2)NC(=O)[C@H](CCC(=O)O)NC(=O)[C@H](CO)NC(C)=O)CSSC[C@@H](C(=O)N(C)CC(=O)N[C@@H](CCC(=O)O)C(N)=O)NC(=O)[C@H](CCCNC(=N)N)NC(=O)[C@H](Cc2c[nH]cn2)NC(=O)[C@H](CCC(=O)O)NC(=O)CN(C)C(=O)[C@H](Cc2c[nH]c3ccccc23)NC(=O)[C@H](CC(=O)O)NC(=O)[C@H](CCC(N)=O)NC(=O)[C@H](Cc2cn(C)c3ccccc23)NC1=O
For B4, the IC50[nM], inhibition of hemolysis in assay [3] is less than 100 nM.

B5: Compound 80 (peptide)
peptide: Ac-EFCI[Trp(1-Me)]QDWGEHRC[Sar]EA-NH2
modifications: disulfide 3-13
SMILES: CC[C@H](C)[C@@H]1NC(=O)[C@@H](NC(=O)[C@H](Cc2ccccc2)NC(=O)[C@H](CCC(=O)O)NC(C)=O)CSSC[C@@H](C(=O)N(C)CC(=O)N[C@@H](CCC(=O)O)C(=O)N[C@@H](C)C(N)=O)NC(=O)[C@H](CCCNC(=N)N)NC(=O)[C@H](Cc2c[nH]cn2)NC(=O)[C@H](CCC(=O)O)NC(=O)CNC(=O)[C@H](Cc2c[nH]c3ccccc23)NC(=O)[C@H](CC(=O)O)NC(=O)[C@H](CCC(N)=O)NC(=O)[C@H](Cc2cn(C)c3ccccc23)NC1=O
With B5, the IC50[nM], inhibition of hemolysis in assay [3] was less than 100 nM.

B6: Compound 104 (peptide)
peptide: Ac-EGSAYCI[Trp(1-Me)]QDWGEHRC[Sar]EGK([AEEA-AEEA-γGlu-C16 diacid])-NH2
modifications: disulfide 6-16
SMILES: CC[C@H](C)[C@@H]1NC(=O)[C@@H](NC(=O)[C@H](Cc2ccc(O)cc2)NC(=O)[C@H](C)NC(=O)[C@H](CO)NC(=O)CNC(=O)[C@H](CCC(=O)O)NC(C)=O)CSSC[C@@H](C(=O)N(C)CC(=O)N[C@@H](CCC(=O)O)C(=O)NCC(=O)N[C@@H](CCCCNC(=O)COCCOCCNC(=O)COCCOCCNC(=O)CC[C@H](NC(=O)CCCCCCCCCCCCCCC(=O)O)C(=O)O)C(N)=O)NC(=O)[C@H](CCCNC(=N)N)NC(=O)[C@H](Cc2c[nH]cn2)NC(=O)[C@H](CCC(=O)O)NC(=O)CNC(=O)[C@H](Cc2c[nH]c3ccccc23)NC(=O)[C@H](CC(=O)O)NC(=O)[C@H](CCC(N)=O)NC(=O)[C@H](Cc2cn(C)c3ccccc23)NC1=O
Consider B6, for which binding in assay [1] was put at a Kd of 34 nM. The “IC50[nM], inhibition of hemolysis” value in assay [2] was less than 100 nM.

B7: Compound 83 (peptide)
peptide: Ac-SEFCI[Trp(1-Me)]QEWGEHRC[Sar]EA-NH2
modifications: disulfide 4-14
SMILES: CC[C@H](C)[C@@H]1NC(=O)[C@@H](NC(=O)[C@H](Cc2ccccc2)NC(=O)[C@H](CCC(=O)O)NC(=O)[C@H](CO)NC(C)=O)CSSC[C@@H](C(=O)N(C)CC(=O)N[C@@H](CCC(=O)O)C(=O)N[C@@H](C)C(N)=O)NC(=O)[C@H](CCCNC(=N)N)NC(=O)[C@H](Cc2c[nH]cn2)NC(=O)[C@H](CCC(=O)O)NC(=O)CNC(=O)[C@H](Cc2c[nH]c3ccccc23)NC(=O)[C@H](CCC(=O)O)NC(=O)[C@H](CCC(N)=O)NC(=O)[C@H](Cc2cn(C)c3ccccc23)NC1=O
B7 displayed an IC50[nM], inhibition of hemolysis in assay [3] of less than 100 nM.

B8: Compound 74 (peptide)
peptide: Ac-SEFCI[Trp(1-Me)]QDWGEHRC[Sar]GAES-NH2
modifications: disulfide 4-14
SMILES: CC[C@H](C)[C@@H]1NC(=O)[C@@H](NC(=O)[C@H](Cc2ccccc2)NC(=O)[C@H](CCC(=O)O)NC(=O)[C@H](CO)NC(C)=O)CSSC[C@@H](C(=O)N(C)CC(=O)NCC(=O)N[C@@H](C)C(=O)N[C@@H](CCC(=O)O)C(=O)N[C@@H](CO)C(N)=O)NC(=O)[C@H](CCCNC(=N)N)NC(=O)[C@H](Cc2c[nH]cn2)NC(=O)[C@H](CCC(=O)O)NC(=O)CNC(=O)[C@H](Cc2c[nH]c3ccccc23)NC(=O)[C@H](CC(=O)O)NC(=O)[C@H](CCC(N)=O)NC(=O)[C@H](Cc2cn(C)c3ccccc23)NC1=O
B8: in assay [3], the IC50[nM], inhibition of hemolysis is less than 100 nM.

B9: Compound 78 (peptide)
peptide: Ac-SEFCI[Trp(1-Me)]QDWGEHRC[Sar]E-NH2
modifications: disulfide 4-14
SMILES: CC[C@H](C)[C@@H]1NC(=O)[C@@H](NC(=O)[C@H](Cc2ccccc2)NC(=O)[C@H](CCC(=O)O)NC(=O)[C@H](CO)NC(C)=O)CSSC[C@@H](C(=O)N(C)CC(=O)N[C@@H](CCC(=O)O)C(N)=O)NC(=O)[C@H](CCCNC(=N)N)NC(=O)[C@H](Cc2c[nH]cn2)NC(=O)[C@H](CCC(=O)O)NC(=O)CNC(=O)[C@H](Cc2c[nH]c3ccccc23)NC(=O)[C@H](CC(=O)O)NC(=O)[C@H](CCC(N)=O)NC(=O)[C@H](Cc2cn(C)c3ccccc23)NC1=O
With B9, the IC50[nM], inhibition of hemolysis in assay [3] was less than 100 nM.

B10: Compound 84 (peptide)
peptide: Ac-SEFCI[Trp(1-Me)]QDWGEHRCSEA-NH2
modifications: disulfide 4-14
SMILES: CC[C@H](C)[C@@H]1NC(=O)[C@@H](NC(=O)[C@H](Cc2ccccc2)NC(=O)[C@H](CCC(=O)O)NC(=O)[C@H](CO)NC(C)=O)CSSC[C@@H](C(=O)N[C@@H](CO)C(=O)N[C@@H](CCC(=O)O)C(=O)N[C@@H](C)C(N)=O)NC(=O)[C@H](CCCNC(=N)N)NC(=O)[C@H](Cc2c[nH]cn2)NC(=O)[C@H](CCC(=O)O)NC(=O)CNC(=O)[C@H](Cc2c[nH]c3ccccc23)NC(=O)[C@H](CC(=O)O)NC(=O)[C@H](CCC(N)=O)NC(=O)[C@H](Cc2cn(C)c3ccccc23)NC1=O
Consider B10, for which the IC50[nM], inhibition of hemolysis in assay [3] was less than 100 nM.

B11: Compound 77 (peptide)
peptide: Ac-SEFCI[Trp(1-Me)]QDW[Sar]EHRCTEA-NH2
modifications: disulfide 4-14
SMILES: CC[C@H](C)[C@@H]1NC(=O)[C@@H](NC(=O)[C@H](Cc2ccccc2)NC(=O)[C@H](CCC(=O)O)NC(=O)[C@H](CO)NC(C)=O)CSSC[C@@H](C(=O)N[C@H](C(=O)N[C@@H](CCC(=O)O)C(=O)N[C@@H](C)C(N)=O)[C@@H](C)O)NC(=O)[C@H](CCCNC(=N)N)NC(=O)[C@H](Cc2c[nH]cn2)NC(=O)[C@H](CCC(=O)O)NC(=O)CN(C)C(=O)[C@H](Cc2c[nH]c3ccccc23)NC(=O)[C@H](CC(=O)O)NC(=O)[C@H](CCC(N)=O)NC(=O)[C@H](Cc2cn(C)c3ccccc23)NC1=O
The molecule B11 came in with an IC50[nM], inhibition of hemolysis in assay [3] of less than 100 nM.

(Values after patent US20220306695A1, “COMPSTATIN ANALOGUES AND THEIR MEDICAL USES” (priority 2019, published 2022).)
